For 3 variants, screen value results are on record in article PMC11573789.

Sequences and labels used below:
B1: Upf1-SmBiT [S. cerevisiae] / Edc3 [S. cerevisiae] (parent)
chain 1: MVGSGSHTPYDISNSPSDVNVQPATQLNSTLVEDDDVDNQLFEEAQVTETGFRSPSASDNSCAYCGIDSAKCVIKCNSCKKWFCNTKNGTSSSHIVNHLVLSHHNVVSLHPDSDLGDTVLECYNCGRKNVFLLGFVSAKSEAVVVLLCRIPCAQTKNANWDTDQWQPLIEDRQLLSWVAEQPTEEEKLKARLITPSQISKLEAKWRSNKDATINDIDAPEEQEAIPPLLLRYQDAYEYQRSYGPLIKLEADYDKQLKESQALEHISVSWSLALNNRHLASFTLSTFESNELKVAIGDEMILWYSGMQHPDWEGRGYIVRLPNSFQDTFTLELKPSKTPPPTHLTTGFTAEFIWKGTSYDRMQDALKKFAIDKKSISGYLYYKILGHQVVDISFDVPLPKEFSIPNFAQLNSSQSNAVSHVLQRPLSLIQGPPGTGKTVTSATIVYHLSKIHKDRILVCAPSNVAVDHLAAKLRDLGLKVVRLTAKSREDVESSVSNLALHNLVGRGAKGELKNLLKLKDEVGELSASDTKRFVKLVRKTEAEILNKADVVCCTCVGAGDKRLDTKFRTVLIDESTQASEPECLIPIVKGAKQVILVGDHQQLGPVILERKAADAGLKQSLFERLISLGHVPIRLEVQYRMNPYLSEFPSNMFYEGSLQNGVTIEQRTVPNSKFPWPIRGIPMMFWANYGREEISANGTSFLNRIEAMNCERIITKLFRDGVKPEQIGVITPYEGQRAYILQYMQMNGSLDKDLYIKVEVASVDAFQGREKDYIILSCVRANEQQAIGFLRDPRRLNVGLTRAKYGLVILGNPRSLARNTLWNHLLIHFREKGCLVEGTLDNLQLCTVQLVRPQPRKTERPMNAQFNVESEMGDFPKFQDFDAQSMVSFSGQIGDFGNAFVDNTELSSYINNEYWNFENFKSAFSQKQNRNEIDDRNLYQEEASHLNSNFARELQREEQKHELSKDFSNLGI
chain 2: MSQFVGFGVQVELKDGKLIQGKIAKATSKGLTLNDVQFGDGGKSQAFKVRASRLKDLKVLTVASQSGKRKQQRQQQQQNDYNQNRGEHIDWQDDDVSKIKQQEDFDFQRNLGMFNKKDVFAQLKQNDDILPENRLQGHNRKQTQLQQNNYQNDELVIPDAKKDSWNKISSRNEQSTHQSQPQQDAQDDLVLEDDEHEYDVDDIDDPKYLPITQSLNITHLIHSATNSPSINDKTKGTVINDKDQVLAKLGQMIISQSRSNSTSLPAANKQTTIRSKNTKQNIPMATPVQLLEMESITSEFFSINSAGLLENFAVNASFFLKQKLGGRARLRLQNSNPEPLVVILASDSNRSGAKALALGRHLCQTGHIRVITLFTCSQNELQDSMVKKQTDIYKKCGGKIVNSVSSLESAMETLNSPVEIVIDAMQGYDCTLSDLAGTSEVIESRIKSMISWCNKQRGSTKVWSLDIPNGFDAGSGMPDIFFSDRIEATGIICSGWPLIAINNLIANLPSLEDAVLIDIGIPQGAYSQRTSLRKFQNCDLFVTDGSLLLDL
B2: Upf1-SmBiT [S. cerevisiae] / Dbp2 [S. cerevisiae] (parent)
chain 1: B1 chain 1
chain 2: MTYGGRDQQYNKTNYKSRGGDFRGGRNSDRNSYNDRPQGGNYRGGFGGRSNYNQPQELIKPNWDEELPKLPTFEKNFYVEHESVRDRSDSEIAQFRKENEMTISGHDIPKPITTFDEAGFPDYVLNEVKAEGFDKPTGIQCQGWPMALSGRDMVGIAATGSGKTLSYCLPGIVHINAQPLLAPGDGPIVLVLAPTRELAVQIQTECSKFGHSSRIRNTCVYGGVPKSQQIRDLSRGSEIVIATPGRLIDMLEIGKTNLKRVTYLVLDEADRMLDMGFEPQIRKIVDQIRPDRQTLMWSATWPKEVKQLAADYLNDPIQVQVGSLELSASHNITQIVEVVSDFEKRDRLNKYLETASQDNEYKTLIFASTKRMCDDITKYLREDGWPALAIHGDKDQRERDWVLQEFRNGRSPIMVATDVAARGIDVKGINYVINYDMPGNIEDYVHRIGRTGRAGATGTAISFFTEQNKGLGAKLISIMREANQNIPPELLKYDRRSYGGGHPRYGGGRGGRGGYGRRGGYGGGRGGYGGNRQRDGGWGNRGRSNY
B3: Upf1-SmBiT [S. cerevisiae] / Pat1 [S. cerevisiae] (parent)
chain 1: B1 chain 1
chain 2: MSFFGLENSGNARDGPLDFEESYKGYGEHELEENDYLNDETFGDNVQVGTDFDFGNPHSSGSSGNAIGGNGVGATARSYVAATAEGISGPRTDGTAAAGPLDLKPMESLWSTAPPPAMAPSPQSTMAPAPAPQQMAPLQPILSMQDLERQQRQMQQQFMNFHAMGHPQGLPQGPPQQQFPMQPASGQPGPSQFAPPPPPPGVNVNMNQMPMGPVQVPVQASPSPIGMSNTPSPGPVVGATKMPLQSGRRSKRDLSPEEQRRLQIRHAKVEKILKYSGLMTPRDKDFITRYQLSQIVTEDPYNEDFYFQVYKIIQRGGITSESNKGLIARAYLEHSGHRLGGRYKRTDIALQRMQSQVEKAVTVAKERPSKLKDQQAAAGNSSQDNKQANTVLGKISSTLNSKNPRRQLQIPRQQPSDPDALKDVTDSLTNVDLASSGSSSTGSSAAAVASKQRRRSSYAFNNGNGATNLNKSGGKKFILELIETVYEEILDLEANLRNGQQTDSTAMWEALHIDDSSYDVNPFISMLSFDKGIKIMPRIFNFLDKQQKLKILQKIFNELSHLQIIILSSYKTTPKPTLTQLKKVDLFQMIILKIIVSFLSNNSNFIEIMGLLLQLIRNNNVSFLTTSKIGLNLITILISRAALIKQDSSRSNILSSPEISTWNEIYDKLFTSLESKIQLIFPPREYNDHIMRLQNDKFMDEAYIWQFLASLALSGKLNHQRIIIDEVRDEIFATINEAETLQKKEKELSVLPQRSQELDTELKSIIYNKEKLYQDLNLFLNVMGLVYRDGEISELK

In one assay the parent is B1. In words: NanoBiT (ratiometric protein-fragment complementation assay in live yeast). The conditions noted are these: with Edc3 [S. cerevisiae]; four experimental replicates; read off a plot.
For chain 1 C122S, the screen value is -2.8 log2.

A further assay covers variants of B2. The description is as above. The conditions noted are these: with Dbp2 [S. cerevisiae]; four experimental replicates; read off a plot.
On to chain 1 C122S, for which the screen value came out at 2 log2.

A further assay covers variants of B3. Described as above. The conditions noted are these: with Pat1 [S. cerevisiae]; four experimental replicates; read off a plot.
Regarding chain 1 C122S, the screen value is -1.6 log2.
